Reference: patent US20150105316A1 (TREVENA, published 2015)
Where no end group is shown, it is not given here. [ ]: non-standard residue; d: D form. The star is where a group is joined. Val(3-OH) = CC(C)(O)[C@H](N)C(=O)O; Tle = CC(C)(C)[C@H](N)C(=O)O; Ac6c = NC1(C(=O)O)CCCCC1; NHCH2tBu = CC(C)(C)CN*; Aib = CC(C)(N)C(=O)O; NHiPr = CC(C)N*; Sar = CNCC(=O)O

T1: human angiotensin 2 type 1 receptor (human, UniProt P30556 1-359)
T1 sequence (looked up): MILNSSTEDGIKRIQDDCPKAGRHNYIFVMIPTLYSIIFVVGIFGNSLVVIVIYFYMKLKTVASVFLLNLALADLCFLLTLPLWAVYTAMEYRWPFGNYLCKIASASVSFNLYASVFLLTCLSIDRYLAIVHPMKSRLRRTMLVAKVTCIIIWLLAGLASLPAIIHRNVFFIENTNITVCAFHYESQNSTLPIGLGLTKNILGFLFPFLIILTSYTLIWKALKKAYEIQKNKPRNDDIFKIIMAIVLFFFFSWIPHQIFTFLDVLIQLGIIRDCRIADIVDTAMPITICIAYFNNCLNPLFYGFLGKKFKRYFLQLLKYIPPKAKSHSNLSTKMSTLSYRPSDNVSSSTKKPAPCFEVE

T2: rat angiotensin 2 type 1 receptor (rat, UniProt P25095 1-359)
T2 sequence (looked up): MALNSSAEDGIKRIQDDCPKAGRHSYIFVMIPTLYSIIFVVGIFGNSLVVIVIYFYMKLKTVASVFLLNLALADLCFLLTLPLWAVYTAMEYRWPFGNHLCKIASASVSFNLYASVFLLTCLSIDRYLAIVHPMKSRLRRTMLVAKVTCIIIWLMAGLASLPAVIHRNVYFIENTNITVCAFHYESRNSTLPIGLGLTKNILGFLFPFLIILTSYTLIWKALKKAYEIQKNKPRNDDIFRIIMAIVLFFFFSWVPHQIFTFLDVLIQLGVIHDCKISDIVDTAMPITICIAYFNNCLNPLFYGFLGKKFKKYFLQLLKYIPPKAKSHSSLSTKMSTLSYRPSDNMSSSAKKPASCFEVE


Experiments:
Test in all cases: cell-based or functional assay
[1] = molecular target: T1, human angiotensin 2 type 1 receptor
[2] = molecular target: T2, rat angiotensin 2 type 1 receptor
[3] = molecular target: T1, human angiotensin 2 type 1 receptor; remark: listed apart in the source
[4] = molecular target: T2, rat angiotensin 2 type 1 receptor; remark: listed apart in the source

beta-arrestin2 assay EC50 [1] | beta-arrestin2 assay Span [1] | beta-arrestin2 assay pEC50 [1] | beta-arrestin2 assay EC50 [2] | beta-arrestin2 assay Span [2] | beta-arrestin2 assay pEC50 [2] | IP1 G-protein assay EC50 [3] | IP1 G-protein assay Span [3] | IP1 G-protein assay pEC50 [3] | IP1 G-protein assay EC50 [4] | IP1 G-protein assay Span [4] | IP1 G-protein assay pEC50 [4] | Binder
> 3.2 nM | < 101 | < 8.5 | > 3.2 nM | < 105 | < 8.5 |  |  |  |  |  |  | [Sar]RVY[Ac6c]HP-NHMe [SEQ ID NO: 49 (Sar-Arg-Val-Tyr-cyHex-His-Pro-NH-methyl)]
> 3.2 nM | < 101 | < 8.5 | > 3.2 nM | < 105 | < 8.5 |  |  |  |  |  |  | [Sar]RVY[Ac6c]HPC [SEQ ID NO: 34 (Sar-Arg-Val-Tyr-cyHex-His-Pro-Cys)]
> 3.2 nM | < 101 | < 8.5 | > 3.2 nM | < 105 | < 8.5 |  |  |  |  |  |  | [Sar]RVY[Ac6c]HP [SEQ ID NO: 41 (Sar-Arg-Val-Tyr-cyHex-His-Pro)]
> 3.2 nM | < 101 | < 8.5 | > 3.2 nM | < 105 | < 8.5 |  |  |  |  |  |  | [Sar]RVY[Ac6c]HPE [SEQ ID NO: 43 (Sar-Arg-Val-Tyr-cyHex-His-Pro-Glu)]
> 3.2 nM | < 101 | < 8.5 | > 3.2 nM | < 105 | < 8.5 | > 1.3 nM | < 103 | < 9.2 |  |  |  | [Sar]RVY[Aib]HPV [SEQ ID NO: 33 (Sar-Arg-Val-Tyr-AA01-His-Pro-Val)]
> 3.2 nM | < 101 | < 8.5 | > 3.2 nM | < 105 | < 8.5 |  |  |  |  |  |  | [Sar]RVYXHPT (not fully specified (residue 5); printed as Sar-Arg-Val-Tyr-AA01-His-Pro-Thr) [SEQ ID NO: 40 (Sar-Arg-Val-Tyr-AA01-His-Pro-Thr)]
> 3.2 nM | < 101 | < 8.5 | > 3.2 nM | < 105 | < 8.5 |  |  |  |  |  |  | [Sar]RVY[Tle]HPV [SEQ ID NO: 29 (Sar-Arg-Val-Tyr-AA02-His-Pro-Val)]
> 3.2 nM | < 101 | < 8.5 | > 3.2 nM | < 105 | < 8.5 |  |  |  |  |  |  | [Sar]RVY[Ac6c]HP-NHEt [SEQ ID NO: 48 (Sar-Arg-Val-Tyr-cyHex-His-Pro-NH-ethyl)]
> 3.2 nM | < 101 | < 8.5 | > 3.2 nM | < 105 | < 8.5 | > 1.3 nM | < 103 | < 9.2 |  |  |  | [Sar]KVY[Ac6c]HPA [SEQ ID NO: 51 (Sar-Lys-Val-Tyr-cyHex-His-Pro-Ala)]
> 3.2 nM | < 101 | < 8.5 | > 3.2 nM | < 105 | < 8.5 |  |  |  |  |  |  | [Sar]RVY[Ac6c]HPG [SEQ ID NO: 32 (Sar-Arg-Val-Tyr-cyHex-His-Pro-Gly)]
> 3.2 nM | < 101 | < 8.5 | > 3.2 nM | < 105 | < 8.5 |  |  |  |  |  |  | [Sar]RVY[Ac6c]HP[Aib] [SEQ ID NO: 35 (Sar-Arg-Val-Tyr-cyHex-His-Pro-AA01)]

Further lines, the binder ahead of its results:

Binder | beta-arrestin2 assay EC50 [1] | beta-arrestin2 assay Span [1] | beta-arrestin2 assay pEC50 [1] | beta-arrestin2 assay EC50 [2] | beta-arrestin2 assay Span [2] | beta-arrestin2 assay pEC50 [2] | IP1 G-protein assay EC50 [3] | IP1 G-protein assay Span [3] | IP1 G-protein assay pEC50 [3] | IP1 G-protein assay EC50 [4] | IP1 G-protein assay Span [4] | IP1 G-protein assay pEC50 [4]
[Sar]RVY[Ac6c]HP-NHiPr [SEQ ID NO: 46 (Sar-Arg-Val-Tyr-cyHex-His-Pro-NH-i-Pr)] | > 3.2 nM | < 101 | < 8.5 | > 3.2 nM | < 105 | < 8.5 | > 1.3 nM | < 103 | < 9.2 |  |  | 
[Sar]RV[dC]IHC[dA] (not fully specified; printed as Sar-Arg-Val-D-Cys-Ile-His-Cys-D-Ala; cysteine pairing not given here) [SEQ ID NO: 52 (Sar-Arg-Val-D-Cys-Ile-His-Cys-D-Ala)] | > 3.2 nM | < 101 | < 8.5 | > 3.2 nM | < 105 | < 8.5 |  |  |  |  |  | 
[Sar]RVY[Ac6c]HPH [SEQ ID NO: 37 (Sar-Arg-Val-Tyr-cyHex-His-Pro-His)] | > 3.2 nM | < 101 | < 8.5 | > 3.2 nM | < 105 | < 8.5 |  |  |  | > 0.6 nM | < 104 | < 9.2
[Sar]RVY[Ac6c]HPN [SEQ ID NO: 36 (Sar-Arg-Val-Tyr-cyHex-His-Pro-Asn)] | > 3.2 nM | < 101 | < 8.5 | > 3.2 nM | < 105 | < 8.5 |  |  |  |  |  | 
[Sar]RVY[Ac6c]HP[Val(3-OH)] [SEQ ID NO: 31 (Sar-Arg-Val-Tyr-cyHex-His-Pro-AA03)] | > 3.2 nM | < 101 | < 8.5 | > 3.2 nM | < 105 | < 8.5 |  |  |  |  |  | 
[Sar]RVY[Ac6c]HP-NHCH2tBu [SEQ ID NO: 47 (Sar-Arg-Val-Tyr-cyHex-His-Pro-NH-neopentyl)] | > 3.2 nM | < 101 | < 8.5 |  |  |  |  |  |  |  |  | 
[Sar]RVY[Ac6c]HPR [SEQ ID NO: 42 (Sar-Arg-Val-Tyr-cyHex-His-Pro-Arg)] | > 3.2 nM | < 101 | < 8.5 | > 3.2 nM | < 105 | < 8.5 | > 1.3 nM | < 103 | < 9.2 |  |  | 
[Sar]RVY[Tle]HPT [SEQ ID NO: 30 (Sar-Arg-Val-Tyr-AA02-His-Pro-Thr)] | > 3.2 nM | < 101 | < 8.5 | > 3.2 nM | < 105 | < 8.5 |  |  |  |  |  | 
[Sar]RVY[Ac6c]HPK [SEQ ID NO: 50 (Sar-Arg-Val-Tyr-cyHex-His-Pro-Lys)] | > 3.2 nM | < 101 | < 8.5 | > 3.2 nM | < 105 | < 8.5 |  |  |  |  |  | 
